In series [1] the target is T1, influenza B polymerase (PA-PB1-PB2 heterotrimer, FluB) (Influenza B virus, UniProt Q5V8Z9;Q5V8Y6;Q5V8X3 1-726;1-752;1-770). The series can be described thus: fluorescence anisotropy; 1:1 stoichiometry. To be noted: protein: recombinant, copies: 1;1;1. In general terms: Fluorescence polarisation rises when a labelled molecule tumbles more slowly, as on binding a larger partner.

The target in series [2] is T1, influenza B polymerase (PA-PB1-PB2 …). The series can be described thus: X-ray crystallography (3.8 A). To be noted: protein: recombinant, copies: 1;1;1.
Series [3] shares this target. The series is described as follows: FRET / fluorescence titration. The conditions noted are these: protein: recombinant; copies: 1;1;1; label: 3'-FAM-Ex-5 on v5'; 5'-Cy3 on v3' (implied by FRET).
The mark [4] stands for this setting: label: FAM-Ex-5, 5' hook hairpin on polymerase.

We go through eight molecules from article PMC5399792.

The term Kd denotes the free concentration of one partner at which half of the binding sites on the other are occupied at equilibrium, for simple one-to-one binding.

Bounds are passed on as bounds.

In the case of UAUACCUCUGCUUCUGCU (ssRNA) [v3' 1-18], in series [1] (label: 5'-FAM-Ex-5, single strand), the Kd was less than 0.01 µM.

With AGCAGAAGCAGAGGUAUA (ssRNA) [c5' 1-18], the Kd in series [1] (setting [4]) was less than 0.01 µM.

On to AGUAGUAACAAGAGGGUA (ssRNA) [v5' 1-18], for which the Kd in series [1] (setting [4]) is less than 0.01 µM.

B1: vRNA promoter v5' 1-14 + v3' 1-18 (crystal) (structured_RNA)
RNA 1: AGUAGUAACAAGAG
RNA 2: UAUACCUCUGCUUCUGCU
modifications: 5'-monophosphate on v5'
B1: the binding result in series [2] is recorded as “binds”.

B2: v5' 1-10 + v3' 1-18 (mixed)
RNA 1: AGUAGUAACA
RNA 2: UAUACCUCUGCUUCUGCU
Take B2: in series [3], the binding result is “binds”.

For the molecule AAUCUAUAAUAGC (ssRNA, 5'-m7Gppp cap) [capped 13-mer primer], the binding result in series [2] (single strand) is “binds”.

As for AGUAGUAACA (ssRNA) [v5' 1-10], the Kd in series [1] (label: 3'-FAM-Ex-5, 5' hook hairpin on polymerase) is less than 0.01 µM.

For the molecule UACCCUCUUGUUACUACU (ssRNA) [c3' 1-18], the Kd in series [1] (label: FAM-Ex-5, single strand) was less than 0.01 µM.
